For the assay, the target named is T1, bacteriophage phi29 DNA packaging ATPase gp16 (bacteriophage phi29), P11014.
T1 chain: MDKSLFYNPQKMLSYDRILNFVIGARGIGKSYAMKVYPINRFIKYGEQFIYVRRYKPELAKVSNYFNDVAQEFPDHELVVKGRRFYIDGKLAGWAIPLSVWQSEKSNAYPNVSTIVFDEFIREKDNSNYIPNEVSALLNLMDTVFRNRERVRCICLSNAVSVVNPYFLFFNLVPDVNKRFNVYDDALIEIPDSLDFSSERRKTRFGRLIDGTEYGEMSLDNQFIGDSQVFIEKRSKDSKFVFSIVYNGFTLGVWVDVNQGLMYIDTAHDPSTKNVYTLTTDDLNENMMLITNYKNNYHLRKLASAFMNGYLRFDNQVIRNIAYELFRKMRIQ
As to the kind of experiment: cryo-EM structure. Conditions: remark: other sources report otherwise.

B1: bacteriophage phi29 DNA packaging ATPase gp16, P11014 1-332 (enzyme)
chain: MDKSLFYNPQKMLSYDRILNFVIGARGIGKSYAMKVYPINRFIKYGEQFIYVRRYKPELAKVSNYFNDVAQEFPDHELVVKGRRFYIDGKLAGWAIPLSVWQSEKSNAYPNVSTIVFDEFIREKDNSNYIPNEVSALLNLMDTVFRNRERVRCICLSNAVSVVNPYFLFFNLVPDVNKRFNVYDDALIEIPDSLDFSSERRKTRFGRLIDGTEYGEMSLDNQFIGDSQVFIEKRSKDSKFVFSIVYNGFTLGVWVDVNQGLMYIDTAHDPSTKNVYTLTTDDLNENMMLITNYKNNYHLRKLASAFMNGYLRFDNQVIRNIAYELFRKMRIQ
Take B1: the stoichiometry N amounted to 5.

Values taken from paper PMC8104870.
